Assay [1] concerns NCI-H1573. Put plainly: In-vitro cell viability assay (CellTiter-Glo). The settings on record: Homo sapiens. It is filed as cell-based.
Assay [2] concerns SNU-5. Put plainly: In-vitro cell viability assay (CellTiter-Glo). It counts as cell-based. The settings on record: Homo sapiens. In general terms: Cellular ATP, detected with luciferase, serves as a proxy for viable cell number.
For assay [3], the system named is NCI-H1975. Put plainly: In-vitro cell viability assay (CellTiter-Glo). It is filed as cell-based. The settings on record: Homo sapiens.
The test system of assay [4] is T47D. The assay can be described thus: cells. It is filed as cell-based. The note with it: Homo sapiens, 144 h.
The subject of assay [5] is HT29. Put plainly: In-vitro cell viability assay (CellTiter-Glo). It is filed as cell-based. The note with it: Homo sapiens, HT-29, 144 h.
In assay [6] the target is T1, recombinant human c-Met (human, UniProt P08581 25-932).
T1 construct: Recombinant protein used in ELISA and BLI; also called human c-MET protein; human-derived c-Met protein
The assay can be described thus: BLI, antibody as loading sample, human c-Met.

For assay [7], the target named is T2, monkey c-Met (cynomolgus c-Met) (monkey (cynomolgus), UniProt A0A2K5UM36 25-932).
T2 construct: Recombinant protein used in ELISA and BLI; also called monkey-derived c-MET protein; recombinant monkey c-Met
Put plainly: ELISA on monkey (cynomolgus) c-Met. In general terms: ELISA stands for enzyme-linked immunosorbent assay.

Assay [8] addresses T3, c-Met derived from dogs (dogs, UniProt Q75ZY9 25-935, limits assumed).
T3 construct: Antigen of the cross-reactivity ELISA; also called dog c-Met
The assay can be described thus: ELISA, cross-reactivity test with diluted M01.

In assay [9] the target is T4, c-Met derived from mice (mice, UniProt P16056 25-931, limits assumed).
T4 construct: Antigen of the cross-reactivity ELISA; also called mouse c-Met
The assay can be described thus: ELISA, cross-reactivity test with diluted M01.

The target in assay [10] is T5, c-Met derived from rats (rats, UniProt P97523 25-935, limits assumed).
T5 construct: Antigen of the cross-reactivity ELISA; also called rat c-Met
Put plainly: ELISA, cross-reactivity test with diluted M01.

The target in assay [11] is T2, monkey c-Met (cynomolgus c-Met). Put plainly: BLI, antibody as loading sample, monkey c-Met. Background: In BLI a coated tip is dipped into the sample, and binding shifts an interference pattern.
In assay [12] the target is T1, recombinant human c-Met. Put plainly: ELISA on recombinant human c-Met.
Assay [13] has as its system NCI-H441 human lung cancer xenograft. The assay can be described thus: NCI-H441 human lung cancer xenograft model. It is filed as in vivo, BALB/c nude mice. The settings on record: 3 mg/kg i.v. QW × 2 weeks. As for the experimental part:
NCI-H441 tumor cells (ATCC, Catalog No. HTB-174) were maintained in vitro in RPMI 1640 medium supplemented with 10% FBS and 1% antibiotic-antimycotic at 37°C and 5% CO2 in air. Tumor cells NCI-H441 were routinely passaged twice a week by treatment with trypsin-EDTA. The cells with exponential growth were harvested and counted for tumor inoculation.
Mice were randomly assigned to groups of 10 each, and tumor cells were inoculated into the mice according to the experimental conditions shown in Table 19 below. Specifically, NCI-H441 tumor cells (5 × 10^6 cells/mouse) were subcutaneously inoculated into the right flank of each mouse together with 0.2 mL of PBS containing Matrigel (1:1). Treatment was started on day 14 after inoculation, when the mean tumor volume reached 180 mm^3, and the treatment start date was set as day 0. This experiment was performed for 35 days.
Statistical analysis was performed on the data obtained 35 days after the start of the experiment to determine differences in tumor volume and tumor weight between groups. […] All data were analyzed using SPSS 29.0. p < 0.05 was considered statistically significant.

Read-outs that look alike come from different tables or passages of the source. Non-standard residues stand in square brackets, D forms with d. Residues, ends and D or L forms follow the SMILES beside them. *: point of attachment. Dolaproine = CO[C@@H]([C@@H]1CCCN1)[C@@H](C)C(=O)O; Dil = CC[C@H](C)[C@H](NC)[C@@H](CC(=O)O)OC; X1 = C[C@@H](N*)[C@@H](O)c1ccccc1; NMeV = CN[C@H](C(=O)O)C(C)C

From patent EP4796128A1, “ANTI-C-MET ANTIBODY-DRUG CONJUGATE COMPRISING CAMPTOTHECIN DERIVATIVE” (Celltrion, Inc., priority 2023, dated 2025) come the findings set out here.

In general, IC50 refers to the midpoint of a concentration-inhibition curve. Broadly, the Kd is the concentration at which binding is half-saturated. Usually koff stands for the rate constant with which the complex falls apart. Broadly, the kon is the second-order rate constant of association. As a reminder, the EC50 is the concentration at which the effect is half-maximal. As usually defined, the TGI is how far tumour growth fell short of that in controls. The T/C is the result in the treated group divided by that in the control group, in per cent.

T1 sequence (P08581 25-932 limits assumed): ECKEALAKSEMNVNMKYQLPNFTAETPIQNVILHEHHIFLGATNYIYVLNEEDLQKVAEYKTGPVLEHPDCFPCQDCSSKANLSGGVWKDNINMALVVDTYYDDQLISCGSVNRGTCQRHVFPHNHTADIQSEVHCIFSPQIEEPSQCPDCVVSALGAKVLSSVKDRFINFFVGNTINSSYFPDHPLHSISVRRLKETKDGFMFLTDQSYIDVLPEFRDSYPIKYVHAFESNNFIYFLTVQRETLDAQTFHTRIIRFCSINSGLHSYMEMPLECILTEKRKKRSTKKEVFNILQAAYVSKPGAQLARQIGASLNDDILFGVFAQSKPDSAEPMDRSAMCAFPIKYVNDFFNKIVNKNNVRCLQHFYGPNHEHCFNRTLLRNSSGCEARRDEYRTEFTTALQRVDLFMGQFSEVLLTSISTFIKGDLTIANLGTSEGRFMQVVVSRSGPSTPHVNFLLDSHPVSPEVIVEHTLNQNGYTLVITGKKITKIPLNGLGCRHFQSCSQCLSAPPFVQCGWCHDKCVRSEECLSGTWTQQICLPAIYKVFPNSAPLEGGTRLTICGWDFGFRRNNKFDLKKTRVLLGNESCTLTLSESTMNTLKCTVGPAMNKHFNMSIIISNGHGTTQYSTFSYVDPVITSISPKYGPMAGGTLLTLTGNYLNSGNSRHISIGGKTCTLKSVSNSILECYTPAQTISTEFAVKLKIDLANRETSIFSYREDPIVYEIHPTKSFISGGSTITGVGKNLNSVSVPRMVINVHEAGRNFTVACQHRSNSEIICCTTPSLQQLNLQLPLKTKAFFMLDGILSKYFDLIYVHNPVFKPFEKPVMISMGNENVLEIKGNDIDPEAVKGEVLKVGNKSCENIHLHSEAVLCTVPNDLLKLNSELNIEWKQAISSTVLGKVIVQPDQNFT
T2 sequence (A0A2K5UM36 entry or part of it limits assumed, form in doubt): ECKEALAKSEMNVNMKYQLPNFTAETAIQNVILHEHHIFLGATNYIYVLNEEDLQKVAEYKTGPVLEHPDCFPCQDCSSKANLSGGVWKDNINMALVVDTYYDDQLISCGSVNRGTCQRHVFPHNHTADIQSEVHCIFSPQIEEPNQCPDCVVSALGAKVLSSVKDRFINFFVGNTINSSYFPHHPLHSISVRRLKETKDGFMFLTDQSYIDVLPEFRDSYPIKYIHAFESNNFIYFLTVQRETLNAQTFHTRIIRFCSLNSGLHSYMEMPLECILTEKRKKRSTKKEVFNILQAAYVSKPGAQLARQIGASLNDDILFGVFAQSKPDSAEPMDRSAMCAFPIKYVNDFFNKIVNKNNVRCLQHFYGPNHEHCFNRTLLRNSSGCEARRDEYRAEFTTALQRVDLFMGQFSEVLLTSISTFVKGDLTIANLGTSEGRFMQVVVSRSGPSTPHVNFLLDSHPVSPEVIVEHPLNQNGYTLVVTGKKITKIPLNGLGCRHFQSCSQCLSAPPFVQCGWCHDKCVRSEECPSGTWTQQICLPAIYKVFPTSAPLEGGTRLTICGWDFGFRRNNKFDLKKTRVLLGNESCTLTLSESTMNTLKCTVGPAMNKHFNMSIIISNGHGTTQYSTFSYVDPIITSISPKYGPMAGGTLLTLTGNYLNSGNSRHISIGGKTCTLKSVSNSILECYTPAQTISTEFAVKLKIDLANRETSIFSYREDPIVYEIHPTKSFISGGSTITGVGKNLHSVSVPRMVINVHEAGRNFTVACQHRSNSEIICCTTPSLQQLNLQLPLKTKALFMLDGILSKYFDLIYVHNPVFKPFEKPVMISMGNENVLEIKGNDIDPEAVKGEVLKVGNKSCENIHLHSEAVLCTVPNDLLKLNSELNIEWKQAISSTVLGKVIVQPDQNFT
T4 sequence (P16056 25-931 limits assumed): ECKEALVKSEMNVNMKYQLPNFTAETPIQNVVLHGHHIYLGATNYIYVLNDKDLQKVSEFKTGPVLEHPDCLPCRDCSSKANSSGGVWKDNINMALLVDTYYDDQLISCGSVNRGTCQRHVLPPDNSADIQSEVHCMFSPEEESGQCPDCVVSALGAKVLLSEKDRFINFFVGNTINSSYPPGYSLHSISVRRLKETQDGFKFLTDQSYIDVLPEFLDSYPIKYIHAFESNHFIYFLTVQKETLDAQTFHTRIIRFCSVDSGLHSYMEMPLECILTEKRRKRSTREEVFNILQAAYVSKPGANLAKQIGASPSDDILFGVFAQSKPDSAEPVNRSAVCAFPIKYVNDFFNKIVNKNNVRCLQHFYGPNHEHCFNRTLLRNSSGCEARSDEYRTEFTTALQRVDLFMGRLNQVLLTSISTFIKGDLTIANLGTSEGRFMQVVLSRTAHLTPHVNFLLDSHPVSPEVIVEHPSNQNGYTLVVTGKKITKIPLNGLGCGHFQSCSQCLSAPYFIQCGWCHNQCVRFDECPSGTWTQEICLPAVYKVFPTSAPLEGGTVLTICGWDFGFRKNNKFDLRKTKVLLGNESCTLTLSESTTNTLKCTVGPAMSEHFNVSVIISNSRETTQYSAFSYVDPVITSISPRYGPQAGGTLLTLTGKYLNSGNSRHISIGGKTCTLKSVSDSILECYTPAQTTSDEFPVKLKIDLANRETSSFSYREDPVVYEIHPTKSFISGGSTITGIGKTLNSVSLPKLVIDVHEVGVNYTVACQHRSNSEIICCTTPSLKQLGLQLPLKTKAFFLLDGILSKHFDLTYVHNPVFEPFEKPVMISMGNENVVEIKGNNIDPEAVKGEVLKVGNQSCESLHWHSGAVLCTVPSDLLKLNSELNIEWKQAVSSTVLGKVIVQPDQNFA
T5 sequence (P97523 25-935 limits assumed): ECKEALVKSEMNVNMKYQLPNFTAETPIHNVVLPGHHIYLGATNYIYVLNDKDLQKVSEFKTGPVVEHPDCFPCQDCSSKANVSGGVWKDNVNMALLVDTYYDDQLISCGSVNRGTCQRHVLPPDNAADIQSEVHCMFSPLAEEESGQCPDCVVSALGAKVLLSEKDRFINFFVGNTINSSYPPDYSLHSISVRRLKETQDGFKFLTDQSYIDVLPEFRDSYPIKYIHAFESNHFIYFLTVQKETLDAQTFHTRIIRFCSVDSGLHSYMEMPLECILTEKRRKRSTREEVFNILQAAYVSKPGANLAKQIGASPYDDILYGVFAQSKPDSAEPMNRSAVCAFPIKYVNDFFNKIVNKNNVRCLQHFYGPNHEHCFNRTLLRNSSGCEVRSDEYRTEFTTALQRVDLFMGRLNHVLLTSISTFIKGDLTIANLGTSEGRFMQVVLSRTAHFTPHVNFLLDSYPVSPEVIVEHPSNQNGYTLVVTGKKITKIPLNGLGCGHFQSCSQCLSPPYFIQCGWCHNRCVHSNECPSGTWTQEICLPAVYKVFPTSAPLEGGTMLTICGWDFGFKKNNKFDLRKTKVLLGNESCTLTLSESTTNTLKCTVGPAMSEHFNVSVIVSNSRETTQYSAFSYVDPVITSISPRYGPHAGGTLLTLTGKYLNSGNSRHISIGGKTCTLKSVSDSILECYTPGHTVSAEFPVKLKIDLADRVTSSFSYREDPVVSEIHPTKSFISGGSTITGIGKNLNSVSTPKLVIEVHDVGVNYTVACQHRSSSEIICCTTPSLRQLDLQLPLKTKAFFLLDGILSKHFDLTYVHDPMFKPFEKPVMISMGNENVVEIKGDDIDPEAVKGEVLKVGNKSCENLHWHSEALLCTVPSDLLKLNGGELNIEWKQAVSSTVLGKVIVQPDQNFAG
T3 sequence (Q75ZY9 25-935 limits assumed): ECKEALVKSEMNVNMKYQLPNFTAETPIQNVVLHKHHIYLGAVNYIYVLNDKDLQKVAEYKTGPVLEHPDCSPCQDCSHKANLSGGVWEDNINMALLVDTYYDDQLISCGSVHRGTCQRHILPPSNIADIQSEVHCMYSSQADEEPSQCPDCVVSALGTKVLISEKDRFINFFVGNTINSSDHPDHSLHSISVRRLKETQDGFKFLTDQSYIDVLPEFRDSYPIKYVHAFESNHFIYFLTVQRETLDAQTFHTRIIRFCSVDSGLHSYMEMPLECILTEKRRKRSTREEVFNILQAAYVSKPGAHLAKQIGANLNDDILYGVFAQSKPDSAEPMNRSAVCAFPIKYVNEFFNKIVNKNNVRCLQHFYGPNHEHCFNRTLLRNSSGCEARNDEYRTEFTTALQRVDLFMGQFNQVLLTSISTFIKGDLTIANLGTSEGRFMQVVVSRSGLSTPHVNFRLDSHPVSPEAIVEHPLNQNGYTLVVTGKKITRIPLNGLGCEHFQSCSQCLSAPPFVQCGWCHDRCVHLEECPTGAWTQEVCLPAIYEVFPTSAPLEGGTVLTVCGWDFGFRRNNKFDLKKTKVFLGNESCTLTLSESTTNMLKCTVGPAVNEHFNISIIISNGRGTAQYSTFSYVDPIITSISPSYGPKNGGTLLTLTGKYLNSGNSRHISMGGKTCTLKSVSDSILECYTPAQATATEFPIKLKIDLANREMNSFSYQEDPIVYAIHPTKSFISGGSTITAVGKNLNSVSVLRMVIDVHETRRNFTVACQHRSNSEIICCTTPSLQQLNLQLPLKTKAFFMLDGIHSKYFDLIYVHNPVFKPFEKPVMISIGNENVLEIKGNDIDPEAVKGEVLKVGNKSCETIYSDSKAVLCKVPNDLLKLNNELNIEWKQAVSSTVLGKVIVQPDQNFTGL

For the molecule `CC[C@H](C)[C@@H]([C@@H](CC(=O)N1CCC[C@H]1[C@H](OC)[C@@H](C)C(=O)N[C@H](C)[C@@H](O)c1ccccc1)OC)N(C)C(=O)[C@@H](NC(=O)[C@@H](NC)C(C)C)C(C)C` [MMAE, monomethyl auristatin E, reference compound] (H-[NMeV]V[Dil][Dolaproine]-X1), the IC50 in assay [1] (144 h, NCI-H1573, 6 days incubation, read-out: IC50) is 0.42 nM; in [2] (144 h, SNU-5, 6 days incubation, read-out: IC50), 0.42 nM; in assay [3] (144 h, NCI-H1975, 6 days incubation, read-out: IC50), 0.3 nM; in [4] (6 days incubation, read-out: IC50), 0.51 nM; in [5] (HT29, 6 days incubation, read-out: IC50) it was 0.14 nM.

Turning to `CC[C@@]1(O)C(=O)OCc2c1cc1n(c2=O)Cc2c-1nc1cc3c(c4c1c2[C@@H](NC(=O)[C@@H](C)O)CC4)OCO3` [PBX-7016], the IC50 in assay [1] (NCI-H1573, 144 h) is 2.55 nM; in assay [2] (SNU-5, 144 h), 5.21 nM; in assay [3] (NCI-H1975, 144 h), 9.8 nM; in assay [4] it was 0.45 nM; in assay [5], 3.8 nM.

B1: anti-c-Met antibody (M01) (antibody, human IgG1, kappa, V domains shown)
VH: QVQLVQSGAEVKKPGASVKVSCKASGYIFTAYTMHWVRQAPGQGLEWMGWIKPNNGLANYAQKFQGRVTMTRDTSISTAYMELSRLRSDDTAVYYCARSEITTEFDYWGQGTLVTVSS
VL: DIVMTQSPDSLAVSLGERATINCKSSESVDSYANSFLHWYQQKPGQPPKLLIYRASTRESGVPDRFSGSGSGTDFTLTISSLQAEDVAVYYCQQSKEDPLTFGGGTKVEIKR
notes: Naked antibody; also called M01 antibody; M01 (Anti-cMet mAb)
As to B1, the figures for the Kd in assay [6] and in assay [11] were 0.605 nM and 0.707 nM, respectively. The koff stood at 4.07e-05 s⁻¹ in [6] and 5.69e-05 s⁻¹ in assay [11]. Further, the figures for the kon in [6] and in assay [11] were 67400 M⁻¹ s⁻¹ and 80500 M⁻¹ s⁻¹, respectively. The EC50 in [7] and in assay [12] was 0.14 nM each time. The binding result in [8], in assay [9] and in assay [10] was “no binding” in each case.

B2: P23-MMAE: isotype ADC: anti-influenza A antibody (Navivumab, P23) with monomethyl auristatin E payload; DAR 3.1 (conjugate, chains of the INN, looked up)
VH: QVQLVQSGAEVKKPGASVKVSCKTSGYSFSTYGVSWVRQAPGQGPEWVGWISAYTGITDYAQKFQGRVTLTTDATTATAFLDLRSLRPDDTATYFCARDKVQGRVEVGSGGRHDYWGQGTLVIVSS
VL: EVVLTQSPGTLALPPGERATLSCRASHRVGSTYIAWYQQKSGQAPRRLIYGASNRATDIPDRFSGSGSGTDFTLTIRRLEPEDSAVYYCQQFSVSPWTFGQGTRVEIK
modifications: MMAE payload, DAR 3.1
Take B2: the “Tumor Volume” value is 180 ± 13 mm^3 in [13] (Day 0, mean ± SEM); 208 ± 19 mm^3 in [13] (Day 4, mean ± SEM); 244 ± 26 mm^3 in assay [13] (Day 7, mean ± SEM); 283 ± 36 mm^3 in [13] (Day 11, mean ± SEM); 287 ± 39 mm^3 in assay [13] (Day 14, mean ± SEM); 358 ± 66 mm^3 in [13] (Day 18, mean ± SEM). Moreover, the “Tumor Volume” value in assay [13] (Day 21, mean ± SEM) came to 396 ± 71 mm^3; in [13] (Day 25, mean ± SEM) it was 563 ± 93 mm^3; in assay [13] (Day 28, mean ± SEM), 708 ± 119 mm^3; in assay [13] (Day 32, mean ± SEM) it was 977 ± 193 mm^3. For the same molecule, the TGI in [13] (Day 35) worked out at 26.27%. The “Tumor Weight on Day 35” value in assay [13] (Day 35) stood at 1.342 ± 0.247 g. The T/C in assay [13] (Day 35, tumor volume vs P23 isotype mAb group) is recorded as 76.70%. The molecule further came in with a T/Cweight in assay [13] (Day 35, tumor weight vs P23 isotype mAb group) of 80.39%.
